Test results as given in PMC10483038.

Target: MBP-Vpu full length (HIV-1 Vpu fused to maltose binding protein) (HIV-1) (UniProt P05919)
Test: cryo-EM structure; single-particle cryoEM of MBP-FL Vpu at 10 µM in 25 mM Tris pH 7.4, 150 mM NaCl, 100 µM TCEP; two maps at ~25 Å; protomers counted by docking MBP into the densities

In the case of “MBP-Vpu full length (HIV-1 Vpu fused to maltose binding protein) (from UniProt P05919 1-82) (natural protein)”, the stoichiometry N is reported as 6 to 7.
